The target of experiment [1] is meditope-enabled Trastuzumab Fab (original, Ile83). Nature of the experiment: SPR, 37 °C; against the original meditope on the original trastuzumab memAb Fab.
Experiment [2] has as its target I83E trastuzumab memAb Fab. Described as above.
The target of experiment [3] is I83E trastuzumab memAb Fab. The experiment can be described thus: SPR, 37 °C.
In experiment [4] the target is meditope-enabled Trastuzumab Fab (original, Ile83). The experiment can be described thus: SPR, 37 °C, immobilized memAb. On the technique in general: In SPR one partner is held on a chip, and binding of the other changes the refractive index at the surface.
Another experiment deals with HER2 (UniProt P04626). The experiment can be described thus: SPR, immobilized HER2, 25 °C.
Experiment [5] has as its target meditope-enabled Trastuzumab Fab (original, Ile83). Nature of the experiment: SPR, 37 °C.

Take 5-diphenyl meditope (peptide): the fold increase in affinity in experiment [1] came out at 25 fold; in experiment [2], 1160 fold. Besides, the values for the dissociation constant Kd in experiment [3] and in experiment [4] were 0.86 nM and 41 nM, respectively. The τ1/2 came out at 2400 s in experiment [3] and 60 s in experiment [4].
Take I83E trastuzumab memAb Fab: in the experiment with HER2, the dissociation constant Kd is 0.044 nM.
For the substance original meditope (peptide), in experiment [2], the fold increase in affinity was 25 fold. For the same substance, the τ1/2 was determined as 16 s in experiment [5] and 280 s in experiment [3]. For the same substance, the Kd in experiment [3] turned out to be 38 nM; in experiment [4], 1000 nM. Further, the off-rate constant (koff) in experiment [3] worked out at 0.0025 s⁻¹.

By Kd is commonly meant a measure of binding affinity in units of concentration. Low readings indicate a tighter complex, high ones a looser complex. For orientation: koff means the first-order rate constant of dissociation. A higher koff goes with a short-lived complex.

(Values after patent publication US20180086826A1.)
